Values of other authors as cited in publication PMC7752828.

What was measured:
[1] = target: Fibrin E-domain E-domain (Homo sapiens) (UniProt P02671)
[2] = target: Fibrin(ogen) gamma' chain γ'-domain (Homo sapiens) (UniProt P02679)

## Thrombin (from UniProt P00734)
[1]
  Kd: 2.8 µM
[2]
  Kd: 0.1 µM
